According to US8304236B2, “Modified biotin-binding protein” (Japan Tobacco Inc., priority 2008, dated 2012):

Experiments:
[1] = target: T1, tamavidin 2 (TM2), wild type, SEQ ID NO: 2, Pleurotus cornucopiae (Pleurotus cornucopiae, UniProt B9A0T7); test: Biacore 3000 iminobiotin binding test (Example 2); details: Iminobiotin-BSA analyte, protein immobilized, pH 11, 25° C.
T1 sequence (B9A0T7 1-141): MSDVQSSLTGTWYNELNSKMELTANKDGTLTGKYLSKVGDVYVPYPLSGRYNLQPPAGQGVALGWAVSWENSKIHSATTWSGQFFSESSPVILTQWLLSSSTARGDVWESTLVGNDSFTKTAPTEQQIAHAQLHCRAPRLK
Method: These samples were diluted with 10 mM acetate buffer (pH 5, Biacore) into about 50 μg/mL.
Immobilization was performed at 25° C. and a flow rate of 10 μL/min using HBS-EP (Biacore) as a running buffer. The TM2 and the TM2 mutant (about 4000 to 8000 RU) were immobilized on CM5 sensor chips (Biacore) by amine coupling. The activating time was set to 10 minutes.
The specific interaction was measured using iminobiotin BSA as an analyte (a material flowing in a flow channel) at 25° C. and a flow rate of 20 μL/min and using a CAPS buffer (50 mM CAPS, 150 mM NaCl, 0.005% Tween 20, pH 11) as the running buffer. Iminobiotin BSA was produced as follows: A highly purified BSA (Sigma, 2 mg) and NHS-iminobiotin (Pierce, 1 mg) were dissolved in 50 mM sodium borate (pH 8.0, 1 mL), followed by incubation at 4° C. for 2 hours. […] Subsequently, the iminobiotin-BSA produced by the process described above was similarly measured with the same flow cell.
Each constant of samples showing interaction was calculated using analysis software BIAevaluation ver. […] The dissociation constant (KD) was determined from kd/ka. […] Accordingly, in the analysis, the Rmax was calculated by conducting local fitting for each concentration, and only the results at concentrations (mainly 18.75 to 75 nM) approximated to the 1:1 (Langmuir) binding model were employed.

human serum protein = test: Non-specific adsorption of low-pI TM2 to human serum protein-immobilized magnetic beads; type: binding
Method: In this embodiment, non-specific binding to human serum was investigated as non-specific adsorption of low-pI TM2 to serum protein-immobilized magnetic beads. Specifically, in order to investigate the non-specific binding of low-pI TM2, the amount of low-pI TM2 adsorbed to magnetic beads to which human serum protein was covalently bonded was measured. TM2 K26A, TM2 K73Q, TM2 R104E, TM2 K141E, and TM2 R104EK141E, which were highly expressed in Escherichia coli, were used as the low-pI TM2 to be investigated.
Human serum protein and magnetic beads were bound to each other as follows. Magnetic beads having surfaces coated with carboxyl groups (Dynabeads M-270 Carboxylic Acid, Dynal, 210 μL) were washed with 0.01 N sodium hydroxide (210 μL) for 10 minutes and then with ultrapure water (210 μL) for 10 minutes three times. To the washed magnetic beads, 1-ethyl-3-(3-dimethylaminopropyl)carbodiimide hydrochloride (EDC, PIERCE) dissolved in cooled ultrapure water was added into a final concentration of 0.2 M, and the mixture was shaken at room temperature for 30 minutes. Then, the magnetic beads were washed with cooled ultrapure water (210 μL) and then with 50 mM MES buffer (pH 5.0, 210 μL).
To the magnetic beads, 1 mg/mL human serum protein (CHEMICON, 210 μL) dialyzed with 50 mM MES buffer (pH 5.0) was added. The mixture was shaken at room temperature for 30 minutes to covalently bind the human serum protein to the magnetic beads. The magnetic beads were collected with a magnet to remove the supernatant. The unreacted active groups on the beads were eliminated with 50 mM tris buffer (pH 7.0, 210 μL), and then the magnetic beads were blocked with a PBS buffer (420 μL) containing 0.5% BSA and 0.1% Tween 20. The magnetic beads were suspended in a PBS buffer (210 μL) to obtain human serum protein-immobilized magnetic beads.
The magnetic beads (7 μL) and 0.56 μg/mL of each low-pI TM2 (100 μL) were mixed for reaction at room temperature for 1 hour. The magnetic beads were collected with a magnetic, and the supernatant was removed. After washing with 20 mM potassium phosphate buffer (500 μL) containing 500 mM sodium chloride, the magnetic beads were mixed with 20 μL of 2×SDS sample buffer (250 mM Tris-HCl, pH 6.8, 20% 2-mercaptoethanol, 20% SDS, 20% glycerol), followed by heating at 95° C. for 20 minutes to dissociate the low-pI TM2 from the magnetic beads.
This sample was subjected to SDS-PAGE and then western blotting analysis to determine the amount of the low-pI TM2. Anti-tamavidin 2 rabbit antibody and alkaline phosphatase-labeled anti-rabbit IgG goat antibody were used as the primary antibody and the secondary antibody, respectively. The bands were detected with Alkaline Phosphatase Substrate Kit II <VECTOR Black> (VECTRO) and were quantified with Las-3000 (FUJIFILM).

[2] = Isoelectric focusing electrophoresis (pI observed); type: physicochemical; details: pH 3 to 10 gel
Method: The isoelectric point of each low-pI TM2 was measured by isoelectric focusing electrophoresis using an XCell SureLock Mini-Cell (Invitrogen). In accordance with the instruction, each low-pI TM2 (500 ng) and an IEF sample buffer (pH 3 to 10 (2×), Invitrogen) were mixed and were added to a polyacrylamide gel (pH 3 to 10, IEF Gel, Invitrogen) at a pH ranging from 3 to 10, followed by electrophoresis at a variable voltage of 100 V for 1 hour, 200 V for 1 hour, and 500 V for 45 minutes in this order.
After the electrophoresis, the gel was shaken in a blotting buffer (0.7% acetic acid) for 10 minutes and then was transferred onto a PVDF membrane at 10 V for 1 hour using an XCell ll Blot Module (Invitrogen). The PVDF membrane was subjected to reaction with anti-TM2 rabbit antibody (PCT/W2006/326260) serving as a primary antibody and with alkaline phosphate-labeled anti-rabbit IgG antibody (BIO-RAD) serving as a secondary antibody, followed by detection of bands with Alkaline Phosphatase Substrate Kit II
The isoelectric point of the high-affinity TM2 was measured by isoelectric focusing electrophoresis using an XCell SureLock Mini-Cell (Invitrogen). […] The electric point of TM2 D40N having replacement of the […] amino acid was higher than that of the wild type TM2 also in the isoelectric focusing electrophoresis.
The isoelectric point of HALU TM2 was measured by isoelectric focusing electrophoresis using an XCell SureLock Mini-Cell (Invitrogen). In accordance with the instruction, bands of each HALU TM2 (4 μg) were detected by CBB staining. […] The observed isoelectric point of TM2 D40N was 9.7, and was reduced to 8.9 after introduction of mutation of R104E and was reduced to 7.3 to 7.5 after further introduction of mutation of K141E.

Salmon sperm DNA = test: Non-specific binding to DNA (membrane-adsorbed DNA, biotinylated HRP, ECL); details: salmon sperm DNA 10 μg to 1 μg on membrane, 25 μg/mL protein
Method: Salmon sperm DNA diluted stepwise from 10 μg to 1 μg with 2×SSC buffer was denatured with an alkali and was adsorbed to Hybond N+membrane (Amersham Biosciences) using Bio-Dot SF (BIO-RAD). After blocking the membrane with 5×Denhardt's solution (0.1% BSA, 0.1% ficoll, 0.1% polyvinylpyrrolidone), the membrane was immersed in 25 μg/mL of low-pI TM2 or the wild-type TM2 at room temperature for 90 minutes. Then, the membrane was washed with a TUBS buffer (TBS buffer containing 0.05% Tween 20) at room temperature for 5 minutes three times. The membrane was blocked with a TBS buffer containing 3% skimmed milk and 0.1% Tween 20 for 1 hour. The membrane was subjected to a reaction with biotinylated horseradise peroxidase (Vector) diluted 5000 times with a TBS buffer containing 3% skimmed milk and 0.1% Tween 20 at room temperature for 1 hour. The membrane was washed with a TBS buffer containing 0.1% Tween 20 again and was then shaken in a solution that is a mixture of reagent 1 and reagent 2 of ECL (Amasham) in the same volumes, followed by detection of the luminol reaction with Las-3000 (FUJIFILM).
The non-specific binding of HALU TM2 to DNA was analyzed by the process in paragraph 1-11) of Example 1.

N=C1N[C@H]2[C@H](CS[C@H]2CCCCC(=O)O)N1 [iminobiotin]
kon ([1]; read-out: binding rate constant (ka)): 130000 ± 5e+09 M⁻¹ s⁻¹ | koff ([1]; read-out: dissociation rate constant (kd)): 0.0013 ± 6e-07 s⁻¹

B1: TM2 R104EK141E: TM2 mutant, arginine 104 and lysine 141 each replaced with glutamic acid; SEQ ID NO: 16 (protein)
chain: MSDVQSSLTGTWYNELNSKMELTANKDGTLTGKYLSKVGDVYVPYPLSGRYNLQPPAGQGVALGWAVSWENSKIHSATTWSGQFFSESSPVILTQWLLSSSTAEGDVWESTLVGNDSFTKTAPTEQQIAHAQLHCRAPRLE
modifications: Synthetic TM2 R104EK141E
decrease of adsorption to human serum protein compared to the wild type TM2 (human serum protein; FIG. 1): 70% | non-specific binding to human serum protein compared to TM2 (human serum protein; FIG. 1): significantly low | Non-specific binding of serum protein (%) (human serum protein; wild type TM2 = 100): 25% | pI observed [2]: 6.2 | Non-specific binding of DNA (Salmon sperm DNA): lower than the detection limit
